B1: DnaJ homolog subfamily B member 11 (Mus musculus), Q99KV1 (parent)
chain: MAPQNLSTFCLLLLYLIGTVIAGRDFYKILGVPRSASIKDIKKAYRKLALQLHPDRNPDDPQAQEKFQDLGAAYEVLSDSEKRKQYDTYGEEGLKDGHQSSHGDIFSHFFGDFGFMFGGTPRQQDRNIPRGSDIIVDLEVTLEEVYAGNFVEVVRNKPVARQAPGKRKCNCRQEMRTTQLGPGRFQMTQEVVCDECPNVKLVNEERTLEVEIEPGVRDGMEYPFIGEGEPHVDGEPGDLRFRIKVVKHRIFERRGDDLYTNVTVSLVEALVGFEMDITHLDGHKVHISRDKITRPGAKLWKKGEGLPNFDNNNIKGSLIITFDVDFPKEQLTEEAKEGIKQLLKQGPVQKVYNGLQGY

Variants of: B1
Conditions: with bip_mouse Hspa5, P20029
bip_mouse Hspa5, P20029, sequence (P20029 whole entry): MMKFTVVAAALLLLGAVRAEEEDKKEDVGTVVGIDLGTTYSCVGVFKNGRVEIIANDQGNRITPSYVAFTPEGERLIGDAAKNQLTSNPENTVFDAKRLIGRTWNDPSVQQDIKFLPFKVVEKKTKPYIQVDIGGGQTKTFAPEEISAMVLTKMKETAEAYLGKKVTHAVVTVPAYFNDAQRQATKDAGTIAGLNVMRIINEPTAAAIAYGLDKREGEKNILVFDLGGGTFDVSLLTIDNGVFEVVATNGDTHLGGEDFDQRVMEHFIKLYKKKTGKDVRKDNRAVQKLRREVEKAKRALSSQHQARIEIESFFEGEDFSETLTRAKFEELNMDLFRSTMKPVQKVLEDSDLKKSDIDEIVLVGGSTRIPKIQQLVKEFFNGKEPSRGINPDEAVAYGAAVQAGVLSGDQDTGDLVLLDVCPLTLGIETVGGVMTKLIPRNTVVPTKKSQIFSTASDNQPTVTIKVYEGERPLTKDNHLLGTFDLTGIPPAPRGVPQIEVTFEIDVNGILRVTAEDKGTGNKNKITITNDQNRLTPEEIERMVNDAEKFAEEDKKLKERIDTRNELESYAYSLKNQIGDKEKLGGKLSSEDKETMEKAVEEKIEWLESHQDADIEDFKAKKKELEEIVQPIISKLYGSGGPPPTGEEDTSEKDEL

effect of a mutation on the interaction	Variant
disrupting interaction	H53Q

Source: IntAct's records for PubMed 21217698
